Laboratory results published in article PMC4832331, “Structural insights into the Escherichia coli lysine decarboxylases and molecular determinants of interaction with the AAA+ ATPase RavA” (Scientific Reports, 2016).

B1: LdcIC chimera (LdcI with the C-terminal β-sheet of LdcC) (enzyme, E. coli, UniProt P0A9H3 1-630, looked up)
chain: MNVIAILNHMGVYFKEEPIRELHRALERLNFQIVYPNDRDDLLKLIENNARLCGVIFDWDKYNLELCEEISKMNENLPLYAFANTYSTLDVSLNDLRLQISFFEYALGAAEDIANKIKQTTDEYINTILPPLTKALFKYVREGKYTFCTPGHMGGTAFQKSPVGSLFYDFFGPNTMKSDISISVSELGSLLDHSGPHKEAEQYIARVFNADRSYMVTNGTSTANKIVGMYSAPAGSTILIDRNCHKSLTHLMMMSDVTPIYFRPTRNAYGILGGIPQSEFQHATIAKRVKETPNATWPVHAVITNSTYDGLLYNTDFIKKTLDVKSIHFDSAWVPYTNFSPIYEGKCGMSGGRVEGKVIYETQSTHKLLAAFSQASMIHVKGDVNEETFNEAYMMHTTTSPHYGIVASTETAAAMMKGNAGKRLINGSIERAIKFRKEIKRLRTESDGWFFDVWQPDHIDTTECWPLRSDSTWHGFKNIDNEHMYLDPIKVTLLTPGMEKDGTMSDFGIPASIVAKYLDEHGIVVEKTGPYNLLFLFSIGIDKTKALSLLRALTDFKRAFDLNLRVKNMLPSLYREDPEFYENMRIQELAQNIHKLIVHHNLPDLMYRAFEVLPTMVMTPYAAFQKELHGEVETIALEQLVGRINANMILPYPPGVPLVMPGEMITEESRPVLEFLQMLCEIGAHYPGFETDIHGAKQDEDGVYRVRVLKMAG
notes: E. coli LdcI up to the first exchanged stretch; E. coli LdcC, first strand region of the C-terminal β-sheet; E. coli LdcI between the two exchanged stretches; E. coli LdcC from 697 to the C-terminus, second strand region of the C-terminal β-sheet; Synthetic ldcIC gene of 2148 bp (GenScript) in the pET-TEV vector; source: E. coli Rosetta 2 (DE3), purified (Ni-NTA, TEV cleavage, second Ni-NTA, …)
B2: LdcCI chimera (LdcC with the C-terminal β-sheet of LdcI) (enzyme, E. coli, UniProt P52095 1-630, looked up)
chain: MNIIAIMGPHGVFYKDEPIKELESALVAQGFQIIWPQNSVDLLKFIEHNPRICGVIFDWDEYSLDLCSDINQLNEYLPLYAFINTHSTMDVSVQDMRMALWFFEYALGQAEDIAIRMRQYTDEYLDNITPPFTKALFTYVKERKYTFCTPGHMGGTAYQKSPVGCLFYDFFGGNTLKADVSISVTELGSLLDHTGPHLEAEEYIARTFGAEQSYIVTNGTSTSNKIVGMYAAPSGSTLLIDRNCHKSLAHLLMMNDVVPVWLKPTRNALGILGGIPRREFTRDSIEEKVAATTQAQWPVHAVITNSTYDGLLYNTDWIKQTLDVPSIHFDSAWVPYTHFHPIYQGKSGMSGERVAGKVIFETQSTHKMLAALSQASLIHIKGEYDEEAFNEAFMMHTTTSPSYPIVASVETAAAMLRGNPGKRLINRSVERALHFRKEVQRLREESDGWFFDIWQPPQVDEAECWPVAPGEQWHGFNDADADHMFLDPVKVTILTPGMDEQGNMSEEGIPAALVAKFLDERGIVVEKTGPYNLLFLFSIGIDKTKAMGLLRGLTEFKRSYDLNLRIKNMLPDLYAEDPDFYRNMRIQDLAQGIHKLIRKHDLPGLMLRAFDTLPEMIMTPHQAWQRQIKGMTEEVYLDEMVGRVSANMILPYPPGVPLLMPGEMLTKESRTVLDFLLMLCSVGQHYPGFETDIHGAYRQADGRYTVKVLKEESKK
notes: E. coli LdcC up to the first exchanged stretch; E. coli LdcI, first strand region of the C-terminal β-sheet; E. coli LdcC between the two exchanged stretches; E. coli LdcI from 697 to the C-terminus, second strand region of the C-terminal β-sheet; Synthetic ldcCI gene of 2154 bp (GenScript) in the pET-TEV vector; source: E. coli Rosetta 2 (DE3), purified (Ni-NTA, TEV cleavage, second Ni-NTA, …)
B3: Escherichia coli biosynthetic lysine decarboxylase LdcC (enzyme, E. coli)
chain: MNIIAIMGPHGVFYKDEPIKELESALVAQGFQIIWPQNSVDLLKFIEHNPRICGVIFDWDEYSLDLCSDINQLNEYLPLYAFINTHSTMDVSVQDMRMALWFFEYALGQAEDIAIRMRQYTDEYLDNITPPFTKALFTYVKERKYTFCTPGHMGGTAYQKSPVGCLFYDFFGGNTLKADVSISVTELGSLLDHTGPHLEAEEYIARTFGAEQSYIVTNGTSTSNKIVGMYAAPSGSTLLIDRNCHKSLAHLLMMNDVVPVWLKPTRNALGILGGIPRREFTRDSIEEKVAATTQAQWPVHAVITNSTYDGLLYNTDWIKQTLDVPSIHFDSAWVPYTHFHPIYQGKSGMSGERVAGKVIFETQSTHKMLAALSQASLIHIKGEYDEEAFNEAFMMHTTTSPSYPIVASVETAAAMLRGNPGKRLINRSVERALHFRKEVQRLREESDGWFFDIWQPPQVDEAECWPVAPGEQWHGFNDADADHMFLDPVKVTILTPGMDEQGNMSEEGIPAALVAKFLDERGIVVEKTGPYNLLFLFSIGIDKTKAMGLLRGLTEFKRSYDLNLRIKNMLPDLYAEDPDFYRNMRIQDLAQGIHKLIRKHDLPGLMLRAFDTLPEMIMTPHQAWQRQIKGEVETIALEQLVGRVSANMILPYPPGVPLLMPGEMLTKESRTVLDFLLMLCSVGQHYPGFETDIHGAKQDEDGVYRVRVLK
notes: LdcC, biosynthetic lysine decarboxylase of E. coli; Decamer; PLP cofactor was in the buffers; also called constitutive lysine decarboxylase; copies: 10
B4: Escherichia coli AAA+ ATPase RavA (enzyme)
chain: not shown
notes: RavA, AAA+ ATPase of E. coli; It was mixed in the presence of 2 mM ADP and 10 mM MgCl2
B5: Escherichia coli inducible lysine decarboxylase LdcI (enzyme, E. coli)
chain: MNVIAILNHMGVYFKEEPIRELHRALERLNFQIVYPNDRDDLLKLIENNARLCGVIFDWDKYNLELCEEISKMNENLPLYAFANTYSTLDVSLNDLRLQISFFEYALGAAEDIANKIKQTTDEYINTILPPLTKALFKYVREGKYTFCTPGHMGGTAFQKSPVGSLFYDFFGPNTMKSDISISVSELGSLLDHSGPHKEAEQYIARVFNADRSYMVTNGTSTANKIVGMYSAPAGSTILIDRNCHKSLTHLMMMSDVTPIYFRPTRNAYGILGGIPQSEFQHATIAKRVKETPNATWPVHAVITNSTYDGLLYNTDFIKKTLDVKSIHFDSAWVPYTNFSPIYEGKCGMSGGRVEGKVIYETQSTHKLLAAFSQASMIHVKGDVNEETFNEAYMMHTTTSPHYGIVASTETAAAMMKGNAGKRLINGSIERAIKFRKEIKRLRTESDGWFFDVWQPDHIDTTECWPLRSDSTWHGFKNIDNEHMYLDPIKVTLLTPGMEKDGTMSDFGIPASIVAKYLDEHGIVVEKTGPYNLLFLFSIGIDKTKALSLLRALTDFKRAFDLNLRVKNMLPSLYREDPEFYENMRIQELAQNIHKLIVHHNLPDLMYRAFEVLPTMVMTPYAAFQKELHGMTEEVYLDEMVGRINANMILPYPPGVPLVMPGEMITEESRPVLEFLQMLCEIGAHYPGFETDIHGAYRQADGRYTVKVLKEESKK
notes: LdcI (CadA), inducible lysine decarboxylase of E. coli; wing domain 1-129, core domain 130-563, CTD 564-715; Decamer of two pentameric rings; The whole enzyme (715 residues) is likely; PLP cofactor was in the buffers; also called CadA; LdcIa (at pH 6.2); copies: 10

Key:
[1] = biological target: the molecule itself; assay: not stated; purified chimeras alone; decamers 'visually indistinguishable from the wild-type proteins'
[2] = biological target: B4; assay: negative stain EM; 0.4 mg/ml RavA mixed with 0.3 mg/ml LdcI, LdcC, LdcCI or LdcIC; 2 mM ADP, 10 mM MgCl2, 20 mM Hepes, 150 mM NaCl, pH 7.4; 10 min at room temperature; 2% uranyl acetate; conditions: both partners purified
[3] = biological target: the molecule itself; assay: cryo-EM structure; LdcC alone, 2 mg/ml, 25 mM HEPES, 100 mM NaCl, 0.2 mM PLP, 1 mM DTT, pH 7.2 (results say pH 7.5); no ppGpp
[4] = biological target: B5; assay: negative stain EM; 0.4 mg/ml RavA mixed with 0.3 mg/ml LdcI, LdcC, LdcCI or LdcIC; 2 mM ADP, 10 mM MgCl2, 20 mM Hepes, 150 mM NaCl, pH 7.4; 10 min at room temperature; 2% uranyl acetate; conditions: both partners purified
[5] = biological target: the molecule itself; assay: cryo-EM structure; LdcI alone, 2 mg/ml, 25 mM MES, 100 mM NaCl, 0.2 mM PLP, 1 mM DTT, pH 6.2; no ppGpp

Binder: B1
- stoichiometry N [1]: 10

Binder: B2
- stoichiometry N [1]: 10
- binding result [2]: binds

Binder: B3
- stoichiometry N [3]: 10

Binder: B4
- binding result [4]: binds

Binder: B5
- stoichiometry N [5]: 10
